Test results as given in publication PMC3988878, “Ultrastructural characterisation of Bacillus subtilis TatA complexes suggests they are too small to form homooligomeric translocation pores” (Biochimica et Biophysica Acta, 2013).

Target: the molecule itself
Assay: SEC; Superdex 200 HR 10/30, calibrated; 240 μl of concentrated Talon eluate; 20 mM Trizma, 150 mM NaCl, 0.02% DDM; 0.5 ml/min; fractions immunoblotted for the His-tag

B1: B. subtilis TatAd with a C-terminal His-tag (natural protein, UniProt O31467 1-70, looked up)
chain: MFSNIGIPGLILIFVIALIIFGPSKLPEIGRAAGRTLLEFKSATKSLVSGDEKEEKSAELTAVKQDKNAG
notes: TatAd, Bacillus subtilis, product of the tatAd-his gene in pBAD24 (pBAd-His); also called TatAd-His; TatAd complex; not shown: His6, C-terminal, kept
B1: binds.
